Data on 3 molecules can be found in US20240343811A1 (SHANDONG SIMCERE BIOPHARMACUTICAL, published 2024).

Read-outs that look alike come from different tables or passages of the source.

The target of assay [1] is T1, human CD16b (NA2), full length, on FlpinCHO cells (human, UniProt O75015 17-200).
T1 construct: also called FlpinCHO-human CD16b (NA2)
T1 chain: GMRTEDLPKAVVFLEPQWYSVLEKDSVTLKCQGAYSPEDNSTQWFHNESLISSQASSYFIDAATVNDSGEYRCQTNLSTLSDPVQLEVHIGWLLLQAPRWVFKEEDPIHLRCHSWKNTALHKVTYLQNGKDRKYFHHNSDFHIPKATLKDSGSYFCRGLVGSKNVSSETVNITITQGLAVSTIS
In words: FACS on FlpinCHO cells. The procedure: (§1) The required cells were scale-up cultured in a T-75 cell culture flask to the logarithmic growth phase. The medium was aspirated, and the cells were washed twice with a PBS buffer and then digested with trypsin. After the digestion was terminated, the cells were washed twice with the PBS buffer. The cells were counted, and then the cell pellet was resuspended with a [PBS+2% (w/w) BSA] blocking solution to 2×10⁶ cells/ml, and added to a 96-well FACS reaction plate at 50 μl/well. […] 50 μl/well of the antibody to be detected was added at different concentrations, and incubated on ice for 1 hour. […] The mixture was centrifuged and washed 5 times with PBS, and FACS (FACS Canto II, purchased from BD Company) was used for detection and result analysis. Data analysis was performed by software (CellQuest) to obtain the mean fluorescence intensity (MFI) of the cells. Then, software (GraphPad Prism8) was used for analysis, data fitting and EC50 value calculation.
(§2) The binding of an antibody to be detected to FlpinCHO-human CD16b cells was detected according to the method of Example 3.1.

Assay [2] has as its target T2, human CD16b (NA1), full length, on FlpinCHO cells (human, UniProt O75015 17-200).
T2 construct: also called FlpinCHO-human CD16b (NA1)
T2 chain: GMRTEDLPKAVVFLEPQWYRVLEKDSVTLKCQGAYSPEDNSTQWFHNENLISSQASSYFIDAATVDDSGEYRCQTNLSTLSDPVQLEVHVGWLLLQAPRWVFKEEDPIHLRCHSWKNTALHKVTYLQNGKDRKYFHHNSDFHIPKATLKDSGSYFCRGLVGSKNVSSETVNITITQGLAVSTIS
The assay is described as follows: FACS on FlpinCHO cells. The procedure: as §1, §2

Assay [3] concerns the target T3, human CD16a (158V), full length, on cells (human, UniProt P08637 17-254). In words: cell-based or functional assay.
A further assay addresses T4, Human CD16a (158F)-his (human).
T4 construct: entry holds ECD, AVI tag, linker and His tag
The assay is described as follows: SPR (Biacore), antibody captured on Protein A. The procedure: (§3) A sample buffer and a running buffer were HBS-EP+ (10 mM HEPES, 150 mM NaCl, 3 mM EDTA and 0.05% surfactant P20) (GE Healthcare; BR-1006-69). The flow-through cell was set to 25° C. The sample block was set to 16° C. Both were pretreated with the running buffer. In each cycle, an antibody to be detected was first captured with a Protein A chip, and then a single concentration of CD16 antigen protein was injected. The binding and dissociation processes of the antibody and the antigen protein were recorded, and finally Glycine pH 1.5 (GE Healthcare; BR-1003-54) was used to complete chip regeneration. Binding was measured by injecting different concentrations of recombinant human CD16-ECD his proteins in a solution for 240 s with a flow rate of 30 μL/min, wherein a total of 5 concentrations were prepared by using 200 nM as a starting concentration (see the detailed results for the actual concentration in the test) and performing a 1:1 dilution. The dissociation phase was monitored for up to 600 s and was triggered by switching from a sample solution to a running buffer. The surface was regenerated by washing with a 10 mM glycine solution (pH 1.5) for 30 s at a flow rate of 30 μL/min. Bulk refractive index difference was corrected by subtracting the response obtained from the goat anti-human Fc surface. Blank injection was also subtracted (=double reference). For calculation of apparent KD and other kinetic parameters, Langmuir 1:1 model was used.

Assay [4] addresses T5, human CD16a (158F), full length, on FlpinCHO cells (human, UniProt P08637 17-254). In words: FACS on FlpinCHO cells. The procedure: as §1
(§4) The binding of a humanized antibody to FlpinCHO-human CD16a cells was detected according to the method of Example 3.1.

Assay [5] has as its target T3, human CD16a (158V), full length, on …. In words: FACS on FlpinCHO cells. As to the method: as §1, §4
Assay [6] addresses T5, human CD16a (158F), full length, on …. The assay is described as follows: FACS on FlpinCHO cells. The procedure:
as §1
This is another data set of the same source.

Assay [7] addresses T3, human CD16a (158V), full length, on …. In words: FACS on FlpinCHO cells. As to the method: as §1
The source holds these as a separate data set.

The target in assay [8] is T5, human CD16a (158F), full length, on …. In words: FACS, biotinylated antibody. The procedure:
as §1, with “The” for “The required cells were scale-up cultured in a T-75 cell culture flask to the logarithmic growth phase. The”
(§5) An antibody to be detected was labeled in advance according to the instructions of a biotin labeling kit (EZ-Link™ NHS-PEG4 Biotinylation Kit, purchased from Thermofisher Scientific, catalog number: 21455). […] Detection was performed according to the method of Example 3.1, wherein the biotinylated antibody was detected with fluorescein APC-labeled Streptavidin (High Concentration) (purchased from Biolegend, catalog number: 405243).

Assay [9] deals with T3, human CD16a (158V), full length, on …. The assay is described as follows: FACS, biotinylated antibody. As to the method:
as §1, with “The” for “The required cells were scale-up cultured in a T-75 cell culture flask to the logarithmic growth phase. The”
as §5

The target in assay [10] is T1, human CD16b (NA2), full length, on …. The assay is described as follows: FACS on FlpinCHO cells. As to the method:
as §1, §2

The target in assay [11] is T2, human CD16b (NA1), full length, on …. The assay is described as follows: FACS on FlpinCHO cells. As to the method: as §1, §2
Assay [12] deals with T3, human CD16a (158V), full length, on …. The assay is described as follows: cell-based or functional assay. This is another data set of the same source.
The target of another assay is T6, Human CD16a (158V)-his (human).
T6 construct: entry holds ECD, AVI tag, linker and His tag
T6 sequence (chain, as listed by the source limits assumed): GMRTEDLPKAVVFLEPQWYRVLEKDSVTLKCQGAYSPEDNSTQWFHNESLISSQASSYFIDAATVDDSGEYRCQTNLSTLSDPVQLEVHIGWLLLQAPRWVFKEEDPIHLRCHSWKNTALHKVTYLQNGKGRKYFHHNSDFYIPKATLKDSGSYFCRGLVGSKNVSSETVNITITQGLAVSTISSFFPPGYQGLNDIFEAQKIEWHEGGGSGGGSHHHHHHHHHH
In words: SPR (Biacore), antibody captured on Protein A. As to the method:
as §3

Assay [13] addresses T5, human CD16a (158F), full length, on …. In words: FACS, biotinylated antibody, +10 mg/mL human immunoglobulin. The procedure: as §1, with “The” for “The required cells were scale-up cultured in a T-75 cell culture flask to the logarithmic growth phase. The”
as §5

In assay [14] the target is T3, human CD16a (158V), full length, on …. Described as above. The procedure:
as §1, with “The” for “The required cells were scale-up cultured in a T-75 cell culture flask to the logarithmic growth phase. The”
as §5

The target in assay [15] is T7, CD16 on primary human NK cells (human, UniProt P08637 17-254).
T7 construct: whole, on cells; also called resting NK cells
T7 sequence (P08637 17-254): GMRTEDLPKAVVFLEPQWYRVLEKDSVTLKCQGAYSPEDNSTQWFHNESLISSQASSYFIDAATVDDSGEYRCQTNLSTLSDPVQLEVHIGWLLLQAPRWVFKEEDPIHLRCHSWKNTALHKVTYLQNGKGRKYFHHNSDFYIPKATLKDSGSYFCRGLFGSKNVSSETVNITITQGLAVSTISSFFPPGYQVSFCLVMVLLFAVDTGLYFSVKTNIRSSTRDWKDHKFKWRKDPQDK
In words: FACS on human NK cells. As to the method: as §1
The binding of an antibody to be detected to freshly prepared human NK cells (Milestone Biotechnologies, catalog number: PB56-N-Custom) was detected according to the method of Example 3.1.

T5 sequence (P08637 17-254 limits assumed): as the sequence (P08637 17-254) above
T3 sequence (P08637 17-254 F176V limits assumed): as the sequence (P08637 17-254) above, with F160V counted along it
T4 sequence (chain, as listed by the source limits assumed): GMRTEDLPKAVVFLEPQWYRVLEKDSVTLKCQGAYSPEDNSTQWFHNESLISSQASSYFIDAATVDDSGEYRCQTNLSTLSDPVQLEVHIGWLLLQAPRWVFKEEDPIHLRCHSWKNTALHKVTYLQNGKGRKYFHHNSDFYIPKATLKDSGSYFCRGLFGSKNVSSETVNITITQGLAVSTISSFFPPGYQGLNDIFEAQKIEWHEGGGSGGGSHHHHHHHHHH

B1: VHH06-03 humanized VHH-Fc antibody (Fc fusion)
chain: EVQLVESGGGVVQPGGSLRLSCAASGSTWTTYAVRWYRQAPGKQREWVAFISVDGSTNYADSVKGRFTISRDNSKNTVYLQMNSLRAEDTADYICRVGGQYWGQGTMVTVSSEPKSSDKTHTCPPCPAPEEFGGPSVFLFPPKPKDTLMISRTPEVTCVVVAVSHEDPEVKFNWYVDGVEVHNAKTKPREEQYNSTYRVVSVLTVLHQDWLNGKEYKCKVSNKALPAPIEKTISKAKGQPREPQVYTLPPSREEMTKNQVSLTCLVKGFYPSDIAVEWESNGQPENNYKTTPPVLDSDGSFFLYSKLTVDKSRWQQGNVFSCSVMHEALHNHYTQKSLSLSPGK
As to B1, in [1], the “Maximum mean fluorescence intensity” value was 174 and the binding result is reported as “no binding (tested: 100 nM)”. In assay [2], the concentration for a half-maximal effect (EC50) came to 0.35 nM and the “Maximum mean fluorescence intensity” value was 56900. Moreover, in [3], the “EC50, activation activity for Jurkat cell” value (“EC50, activation activity” for short) stood at 0.02 nM and the Maximum fluorescence value worked out at 171000. In the assay with Human CD16a (158F)-his, binding was put at a Kd of 28.7 nM, the koff was found to be 0.00129 s⁻¹ and the kon was determined as 44800 M⁻¹ s⁻¹. Further, in [4], it took 0.47 nM to reach a half-maximal effect (EC50) and the “Maximum mean fluorescence intensity” value worked out at 9140. Further, in [5], the EC50 came to 0.49 nM and the “Maximum mean fluorescence intensity” value was 8390.

B2: VHH15 VHH-Fc antibody (Fc fusion)
chain: EVQLVESGGGLVQAGGSLRLSCVASTSTLTTYAVRWYRQAPGKQREWVAFISVDGNTNYPDSVKGRFIVSRDNAKNTVYLQMNSLKPEDTADYICRAGGQYWGQGTQVTVSSEPKSSDKTHTCPPCPAPEFEGGPSVFLFPPKPKDTLMISRTPEVTCVVVAVSHEDPEVKFNWYVDGVEVHNAKTKPREEQYNSTYRVVSVLTVLHQDWLNGKEYKCKVSNKALPAPIEKTISKAKGQPREPQVYTLPPSREEMTKNQVSLTCLVKGFYPSDIAVEWESNGQPENNYKTTPPVLDSDGSFFLYSKLTVDKSRWQQGNVFSCSVMHEALHNHYTQKSLSLSPGK
Regarding B2, the half-maximal effective concentration (EC50) in [6] amounted to 0.44 nM; in assay [7], 0.69 nM; in [8], 0.4 nM; in assay [9], 0.49 nM; in assay [11], 0.44 nM; in [13], 1.41 nM. Moreover, the EC50 stood at 1.41 nM in assay [14] and 0.74 nM in assay [15]. The “Maximum mean fluorescence intensity” value was found to be 5600 in [6]; 6490 in assay [7]; 5240 in assay [8]; 7260 in assay [9]; 178 in assay [10]; 52100 in assay [11]. In addition, the entries for the “Maximum mean fluorescence intensity” value in [13], in [14] and in assay [15] were 6570, 9030 and 2400, respectively. Besides, in assay [10], the binding result is on record as “no binding (tested: 100 nM)”. In addition, in assay [12], the “EC50, activation activity” value came to 0.02 nM. In assay [12], the Maximum fluorescence value turned out to be 167000. The Kd with Human CD16a (158F)-his turned out to be 42.8 nM; with Human CD16a (158V)-his it was 14.1 nM. Moreover, the koff came to 0.00273 s⁻¹ with Human CD16a (158F)-his and 0.0016 s⁻¹ with Human CD16a (158V)-his. Besides, the kon in the assay with Human CD16a (158F)-his was determined as 63800 M⁻¹ s⁻¹; with Human CD16a (158V)-his, 114000 M⁻¹ s⁻¹.

B3: VHH10 VHH-Fc antibody (Fc fusion)
chain: QVQLVESGGGLVQAGGSLRLSCVGSSSTLTTYAVRWYRQAPGKQREWVAFISVDGSTNYPDSVKGRFIVSRDNAKNTVYLQMNSLKPEDTADYICRAGGQYWGQGTQVTVSSEPKSSDKTHTCPPCPAPEFEGGPSVFLFPPKPKDTLMISRTPEVTCVVVAVSHEDPEVKFNWYVDGVEVHNAKTKPREEQYNSTYRVVSVLTVLHQDWLNGKEYKCKVSNKALPAPIEKTISKAKGQPREPQVYTLPPSREEMTKNQVSLTCLVKGFYPSDIAVEWESNGQPENNYKTTPPVLDSDGSFFLYSKLTVDKSRWQQGNVFSCSVMHEALHNHYTQKSLSLSPGK
With B3, the EC50 was found to be 0.44 nM in [6]; 0.63 nM in assay [7]; 0.31 nM in assay [8]; 0.42 nM in assay [9]; 0.34 nM in assay [11]; 1.2 nM in assay [13]. For the same molecule, the EC50 in assay [14] was determined as 1.39 nM; in assay [15] it was 0.45 nM. In addition, the “Maximum mean fluorescence intensity” value in assay [6] came to 5620; in [7] it was 6480; in assay [8], 4690; in [9], 6980; in [10], 140; in assay [11] it was 51400. Also, the “Maximum mean fluorescence intensity” value was 6040 in [13], 9200 in [14] and 2450 in assay [15]. In assay [10], the binding result is listed as “no binding (tested: 100 nM)”. Also, the “EC50, activation activity” value in assay [12] came to 0.02 nM. Moreover, the Maximum fluorescence value in assay [12] came out at 157000. For the same molecule, the Kd with Human CD16a (158F)-his is 39.9 nM; with Human CD16a (158V)-his, 13.6 nM. Moreover, the figures for the koff in the assay with Human CD16a (158F)-his and with Human CD16a (158V)-his were 0.00247 s⁻¹ and 0.00146 s⁻¹, respectively. Moreover, the on-rate constant (kon) in the assay with Human CD16a (158F)-his came to 61800 M⁻¹ s⁻¹; with Human CD16a (158V)-his, 107000 M⁻¹ s⁻¹.
